According to patent publication US20190153108A1 (AbbVie / Abbott, published 2019):

Biological target: human Epidermal Growth Factor Receptor (huEGFR) over-expressed in mcl-1-/- mouse embryonic fibroblasts (human, UniProt P00533 25-1210)
Assay: cell-based or functional assay

Row | Binder | huEGFR^+ mcl-1^-/- MEF EC50 [nM]
1 | AbK-ZT (antibody, V domains shown, synthon ZT on reduced interchain Cys) VH: EVQLQESGPGLVKPSQTLSLTCTVSGYSISRDFAWNWIRQPPGKGLEWMGYISYNGNTRYQPSLKSRITISRDTSKNQFFLKLNSVTAADTATYYCVTASRGFPWWGQGTLVTVSS VL: DIQMTQSPSSMSVSVGDRVTITCHSSQDITYNVGWLQQKPGKSFKGLIYHGSNLDHGVPSRFSGSGSGTDYTLTISSLQPEDFATYYCVQYDDFPWTFGGGTKLEIKR | 0.2
2 | AbG-AAD (antibody, V domains shown, synthon AAD on reduced interchain Cys) VH: EVQLQESGPGLVKPSQTLSLTCTVSGYSISNDFAWNWIRQLPGKGLEWMGYISYKGNTRYQPSLKSRITISRDTSKNQFFLKLNSVTAADTATYYCVTASRGLPYWGQGTLVTVSS VL: DIQMTQSPSSMSVSVGDRVTITCHSSQDITYNIGWLQQKPGKSFKGLIYHGANLDDGVPSRFSGSGSGTDYTLTISSLQPEDFATYYCVQYDEFPWTFGGGTKLEIKR | 108
3 | AbK-SR (antibody, V domains shown, synthon SR on reduced interchain Cys) VH: EVQLQESGPGLVKPSQTLSLTCTVSGYSISRDFAWNWIRQPPGKGLEWMGYISYNGNTRYQPSLKSRITISRDTSKNQFFLKLNSVTAADTATYYCVTASRGFPWWGQGTLVTVSS VL: DIQMTQSPSSMSVSVGDRVTITCHSSQDITYNVGWLQQKPGKSFKGLIYHGSNLDHGVPSRFSGSGSGTDYTLTISSLQPEDFATYYCVQYDDFPWTFGGGTKLEIKR | 8.9
4 | AbB-AAD (antibody, V domains shown, synthon AAD on reduced interchain Cys) VH: EVQLQESGPGLVKPSQTLSLTCTVSGYSISNDFAWNWIRQPPGKGLEWMGYISYKGNTRYQPSLKSRITISRDTSKNQFFLKLNSVTAADTATYYCVTASRGFPWWGQGTLVTVSS VL: DIQMTQSPSSMSVSVGDRVTITCHSSQDINSNIGWLQQKPGKSFKGLIYHGTNLDDGVPSRFSGSGSGTDYTLTISSLQPEDFATYYCVQYAQFPWTFGGGTKLEIKR | 4.6
5 | AbK-TX (antibody, V domains shown, synthon TX on reduced interchain Cys) VH: EVQLQESGPGLVKPSQTLSLTCTVSGYSISRDFAWNWIRQPPGKGLEWMGYISYNGNTRYQPSLKSRITISRDTSKNQFFLKLNSVTAADTATYYCVTASRGFPWWGQGTLVTVSS VL: DIQMTQSPSSMSVSVGDRVTITCHSSQDITYNVGWLQQKPGKSFKGLIYHGSNLDHGVPSRFSGSGSGTDYTLTISSLQPEDFATYYCVQYDDFPWTFGGGTKLEIKR | 0.79
6 | AbB-TV (antibody, V domains shown, synthon TV on reduced interchain Cys) VH: EVQLQESGPGLVKPSQTLSLTCTVSGYSISNDFAWNWIRQPPGKGLEWMGYISYKGNTRYQPSLKSRITISRDTSKNQFFLKLNSVTAADTATYYCVTASRGFPWWGQGTLVTVSS VL: DIQMTQSPSSMSVSVGDRVTITCHSSQDINSNIGWLQQKPGKSFKGLIYHGTNLDDGVPSRFSGSGSGTDYTLTISSLQPEDFATYYCVQYAQFPWTFGGGTKLEIKR | 2.4
7 | AbB-TX (antibody, V domains shown, synthon TX on reduced interchain Cys) VH: EVQLQESGPGLVKPSQTLSLTCTVSGYSISNDFAWNWIRQPPGKGLEWMGYISYKGNTRYQPSLKSRITISRDTSKNQFFLKLNSVTAADTATYYCVTASRGFPWWGQGTLVTVSS VL: DIQMTQSPSSMSVSVGDRVTITCHSSQDINSNIGWLQQKPGKSFKGLIYHGTNLDDGVPSRFSGSGSGTDYTLTISSLQPEDFATYYCVQYAQFPWTFGGGTKLEIKR | 11
8 | AbK-XW (antibody, V domains shown, synthon XW on reduced interchain Cys) VH: EVQLQESGPGLVKPSQTLSLTCTVSGYSISRDFAWNWIRQPPGKGLEWMGYISYNGNTRYQPSLKSRITISRDTSKNQFFLKLNSVTAADTATYYCVTASRGFPWWGQGTLVTVSS VL: DIQMTQSPSSMSVSVGDRVTITCHSSQDITYNVGWLQQKPGKSFKGLIYHGSNLDHGVPSRFSGSGSGTDYTLTISSLQPEDFATYYCVQYDDFPWTFGGGTKLEIKR | 0.6
9 | AbK-KZ (antibody, V domains shown, synthon KZ on reduced interchain Cys) VH: EVQLQESGPGLVKPSQTLSLTCTVSGYSISRDFAWNWIRQPPGKGLEWMGYISYNGNTRYQPSLKSRITISRDTSKNQFFLKLNSVTAADTATYYCVTASRGFPWWGQGTLVTVSS VL: DIQMTQSPSSMSVSVGDRVTITCHSSQDITYNVGWLQQKPGKSFKGLIYHGSNLDHGVPSRFSGSGSGTDYTLTISSLQPEDFATYYCVQYDDFPWTFGGGTKLEIKR | 224
10 | AbK-SE (antibody, V domains shown, synthon SE on reduced interchain Cys) VH: EVQLQESGPGLVKPSQTLSLTCTVSGYSISRDFAWNWIRQPPGKGLEWMGYISYNGNTRYQPSLKSRITISRDTSKNQFFLKLNSVTAADTATYYCVTASRGFPWWGQGTLVTVSS VL: DIQMTQSPSSMSVSVGDRVTITCHSSQDITYNVGWLQQKPGKSFKGLIYHGSNLDHGVPSRFSGSGSGTDYTLTISSLQPEDFATYYCVQYDDFPWTFGGGTKLEIKR | 161
11 | AbB-YY (antibody, V domains shown, synthon YY on reduced interchain Cys) VH: EVQLQESGPGLVKPSQTLSLTCTVSGYSISNDFAWNWIRQPPGKGLEWMGYISYKGNTRYQPSLKSRITISRDTSKNQFFLKLNSVTAADTATYYCVTASRGFPWWGQGTLVTVSS VL: DIQMTQSPSSMSVSVGDRVTITCHSSQDINSNIGWLQQKPGKSFKGLIYHGTNLDDGVPSRFSGSGSGTDYTLTISSLQPEDFATYYCVQYAQFPWTFGGGTKLEIKR | 51
12 | AbG-TX (antibody, V domains shown, synthon TX on reduced interchain Cys) VH: EVQLQESGPGLVKPSQTLSLTCTVSGYSISNDFAWNWIRQLPGKGLEWMGYISYKGNTRYQPSLKSRITISRDTSKNQFFLKLNSVTAADTATYYCVTASRGLPYWGQGTLVTVSS VL: DIQMTQSPSSMSVSVGDRVTITCHSSQDITYNIGWLQQKPGKSFKGLIYHGANLDDGVPSRFSGSGSGTDYTLTISSLQPEDFATYYCVQYDEFPWTFGGGTKLEIKR | 5.3
13 | AbK-ZZ (antibody, V domains shown, synthon ZZ on reduced interchain Cys) VH: EVQLQESGPGLVKPSQTLSLTCTVSGYSISRDFAWNWIRQPPGKGLEWMGYISYNGNTRYQPSLKSRITISRDTSKNQFFLKLNSVTAADTATYYCVTASRGFPWWGQGTLVTVSS VL: DIQMTQSPSSMSVSVGDRVTITCHSSQDITYNVGWLQQKPGKSFKGLIYHGSNLDHGVPSRFSGSGSGTDYTLTISSLQPEDFATYYCVQYDDFPWTFGGGTKLEIKR | 45
14 | AbA-AAD (antibody, V domains shown, synthon AAD on reduced interchain Cys) VH: EVQLQESGPGLVKPSQTLSLTCTVSGYSISRDFAWNWIRQPPGKGLEWMGYISYNGNTRYQPSLKSRITISRDTSKNQFFLKLNSVTAADTATYYCVTASRGFPYWGQGTLVTVSS VL: DIQMTQSPSSMSVSVGDRVTITCHSSQDINSNIGWLQQKPGKSFKGLIYHGTNLDDGVPSRFSGSGSGTDYTLTISSLQPEDFATYYCVQYAQFPWTFGGGTKLEIKR | 65
15 | AbA-TX (antibody, V domains shown, synthon TX on reduced interchain Cys) VH: EVQLQESGPGLVKPSQTLSLTCTVSGYSISRDFAWNWIRQPPGKGLEWMGYISYNGNTRYQPSLKSRITISRDTSKNQFFLKLNSVTAADTATYYCVTASRGFPYWGQGTLVTVSS VL: DIQMTQSPSSMSVSVGDRVTITCHSSQDINSNIGWLQQKPGKSFKGLIYHGTNLDDGVPSRFSGSGSGTDYTLTISSLQPEDFATYYCVQYAQFPWTFGGGTKLEIKR | 16
16 | AbK-YG (antibody, V domains shown, synthon YG on reduced interchain Cys) VH: EVQLQESGPGLVKPSQTLSLTCTVSGYSISRDFAWNWIRQPPGKGLEWMGYISYNGNTRYQPSLKSRITISRDTSKNQFFLKLNSVTAADTATYYCVTASRGFPWWGQGTLVTVSS VL: DIQMTQSPSSMSVSVGDRVTITCHSSQDITYNVGWLQQKPGKSFKGLIYHGSNLDHGVPSRFSGSGSGTDYTLTISSLQPEDFATYYCVQYDDFPWTFGGGTKLEIKR | 37
17 | AbB-CZ (antibody, V domains shown, synthon CZ on reduced interchain Cys) VH: EVQLQESGPGLVKPSQTLSLTCTVSGYSISNDFAWNWIRQPPGKGLEWMGYISYKGNTRYQPSLKSRITISRDTSKNQFFLKLNSVTAADTATYYCVTASRGFPWWGQGTLVTVSS VL: DIQMTQSPSSMSVSVGDRVTITCHSSQDINSNIGWLQQKPGKSFKGLIYHGTNLDDGVPSRFSGSGSGTDYTLTISSLQPEDFATYYCVQYAQFPWTFGGGTKLEIKR | 5.9
18 | AbG-CZ (antibody, V domains shown, synthon CZ on reduced interchain Cys) VH: EVQLQESGPGLVKPSQTLSLTCTVSGYSISNDFAWNWIRQLPGKGLEWMGYISYKGNTRYQPSLKSRITISRDTSKNQFFLKLNSVTAADTATYYCVTASRGLPYWGQGTLVTVSS VL: DIQMTQSPSSMSVSVGDRVTITCHSSQDITYNIGWLQQKPGKSFKGLIYHGANLDDGVPSRFSGSGSGTDYTLTISSLQPEDFATYYCVQYDEFPWTFGGGTKLEIKR | 3.4
19 | AbG-YY (antibody, V domains shown, synthon YY on reduced interchain Cys) VH: EVQLQESGPGLVKPSQTLSLTCTVSGYSISNDFAWNWIRQLPGKGLEWMGYISYKGNTRYQPSLKSRITISRDTSKNQFFLKLNSVTAADTATYYCVTASRGLPYWGQGTLVTVSS VL: DIQMTQSPSSMSVSVGDRVTITCHSSQDITYNIGWLQQKPGKSFKGLIYHGANLDDGVPSRFSGSGSGTDYTLTISSLQPEDFATYYCVQYDEFPWTFGGGTKLEIKR | > 500
20 | AbG-AAA (antibody, V domains shown, synthon AAA on reduced interchain Cys) VH: EVQLQESGPGLVKPSQTLSLTCTVSGYSISNDFAWNWIRQLPGKGLEWMGYISYKGNTRYQPSLKSRITISRDTSKNQFFLKLNSVTAADTATYYCVTASRGLPYWGQGTLVTVSS VL: DIQMTQSPSSMSVSVGDRVTITCHSSQDITYNIGWLQQKPGKSFKGLIYHGANLDDGVPSRFSGSGSGTDYTLTISSLQPEDFATYYCVQYDEFPWTFGGGTKLEIKR | 220
21 | AbG-TV (antibody, V domains shown, synthon TV on reduced interchain Cys) VH: EVQLQESGPGLVKPSQTLSLTCTVSGYSISNDFAWNWIRQLPGKGLEWMGYISYKGNTRYQPSLKSRITISRDTSKNQFFLKLNSVTAADTATYYCVTASRGLPYWGQGTLVTVSS VL: DIQMTQSPSSMSVSVGDRVTITCHSSQDITYNIGWLQQKPGKSFKGLIYHGANLDDGVPSRFSGSGSGTDYTLTISSLQPEDFATYYCVQYDEFPWTFGGGTKLEIKR | 2.6
22 | AbK-CZ (antibody, V domains shown, synthon CZ on reduced interchain Cys) VH: EVQLQESGPGLVKPSQTLSLTCTVSGYSISRDFAWNWIRQPPGKGLEWMGYISYNGNTRYQPSLKSRITISRDTSKNQFFLKLNSVTAADTATYYCVTASRGFPWWGQGTLVTVSS VL: DIQMTQSPSSMSVSVGDRVTITCHSSQDITYNVGWLQQKPGKSFKGLIYHGSNLDHGVPSRFSGSGSGTDYTLTISSLQPEDFATYYCVQYDDFPWTFGGGTKLEIKR | 0.1
